Experimental data: patent publication US9766249B2, “Compositions and methods for prediction of drug sensitivity, resistance, and disease progression” (BioMarker Strategies, LLC, priority 2010, dated 2017)

B1: tissue plasminogen activator (protein, UniProt P00750 36-562, looked up)
Tissue-type plasminogen …: SYQVICRDEKTQMIYQQHQSWLRPVLRSNRVEYCWCNSGRAQCHSVPVKSCSEPRCFNGGTCQQALYFSDFVCQCPEGFAGKCCEIDTRATCYEDQGISYRGTWSTAESGAECTNWNSSALAQKPYSGRRPDAIRLGLGNHNYCRNPDRDSKPWCYVFKAGKYSSEFCSTPACSEGNSDCYFGNGSAYRGTHSLTESGASCLPWNSMILIGKVYTAQNPSAQALGLGKHNYCRNPDGDAKPWCHVLKNRRLTWEYCDVPSCSTCGLRQYSQPQFRIKGGLFADIASHPWQAAIFAKHRRSPGERFLCGGILISSCWILSAAHCFQERFPPHHLTVILGRTYRVVPGEEEQKFEVEKYIVHKEFDDDTYDNDIALLQLKSDSSRCAQESSVVRTVCLPPADLQLPDWTECELSGYGKHEALSPFYSERLKEAHVRLYPSSRCTSQHLLNRTVTDNMLCAGDTRSGGPQANLHDACQGDSGGPLVCLNDGRMTLVGIISWGLGCGQKDVPGVYTKVTNYLDWIRDNMRP
notes: modulator used for ex vivo stimulation
B2: PDGFβ: platelet-derived growth factor stimulus applied to melanoma cell lines (protein, UniProt P01127 82-190, looked up)
Platelet-derived growth …: SLGSLTIAEPAMIAECKTRTEVFEISRRLIDRTNANFLVWPPCVEVQRCSGCCNNRNVQCRPTQVQLRPVQVRKIEIVRKKPIFKKATVTLEDHLACKCETVAAARPVT

Key:
Type in all cases: cell-based
[1] = system: human pancreatic neuroendocrine tumors (PanNETs); test: Pancreatic tumor functional signaling profile upon TPA stimulation (FIG. 18); conditions: tumor sample 10189 (metastatic PancNET)
Excerpt: All samples except 10195 are examples of human pancreatic neuroendocrine tumors (PanNETs). 10195 is a sample of a human pancreatic adenocarcinoma. The data reveal differences in functional profiles based on TPA stimulation using three different phosphoprotein biomarkers (p-ERK1/2, p-GSKα/β, and p-STAT3).

RPMI-7951 [2] = test: Melanoma pErk induction following stimulation by TPA (FIG. 17)
RPMI-7951 [3] = test: PDGFβ stimulation and MEK inhibition of PDGFβ stimulation (FIGS. 23 and 24); conditions: PDGFβ stimulation

Row | Molecule | pERK induction [1] | pErk (RPMI-7951 [2]) | pPDGF (RPMI-7951 [3])
1 | B1 | 10 × | induction | 
2 | B2 |  |  | activated
